Publication PMC3792639, “Complex structure of type VI peptidoglycan muramidase effector and a cognate immunity protein” (Acta Crystallographica Section D: Biological Crystallography, 2013)
Residue numbers refer to the chain shown, from its start.

T1: Tse3 (type VI secretion exported 3), native recombinant protein (P. aeruginosa, UniProt Q9HYC5 1-408)
T1 construct: Tse3, type VI secretion exported 3, peptidoglycan muramidase effector of Pseudomonas aeruginosa; full-length, synthetic gene in pET-22b (NdeI/XhoI); Removal of the His tag is not mentioned; also called muramidase effector; source: E. coli BL21(DE3), purified (Ni-NTA, cation exchange, SEC)
T1 sequence: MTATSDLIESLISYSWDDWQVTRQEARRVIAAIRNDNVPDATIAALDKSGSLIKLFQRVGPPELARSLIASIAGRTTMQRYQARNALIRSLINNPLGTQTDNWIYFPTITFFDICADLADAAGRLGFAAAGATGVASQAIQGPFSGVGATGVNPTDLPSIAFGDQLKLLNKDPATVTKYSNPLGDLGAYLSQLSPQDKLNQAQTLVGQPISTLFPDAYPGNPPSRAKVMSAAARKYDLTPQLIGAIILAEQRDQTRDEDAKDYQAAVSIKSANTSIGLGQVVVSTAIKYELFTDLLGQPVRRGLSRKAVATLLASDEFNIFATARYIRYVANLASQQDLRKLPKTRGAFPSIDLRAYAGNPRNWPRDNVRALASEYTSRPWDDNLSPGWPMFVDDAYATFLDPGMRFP

B1: Tsi3, truncated, without the N-terminal signal peptide (wild type) (natural protein)
chain: GVDFDKTLTHPNGLVVERPVGFDARRSAEGFRFDEGGKLRNPRQLEVQRQDAPPPPDLASRRLGDGEARYKVEEDDGGSAGSEYRLWAAKPAGARWIVVSASEQSEDGEPTFALAWALLERARLQ
notes: Tsi3, immunity protein of Tse3, Pseudomonas aeruginosa; truncated, without the N-terminal signal peptide (residues 1-20); synthetic gene in pET-22b (NdeI/XhoI); also called wild-type Tsi3; cognate immunity protein; source: E. coli BL21(DE3), purified (Ni-NTA, ion exchange, SEC)
B2: Tsi3 S99A (natural protein)
chain: B1 chain with S79A
notes: Tsi3, Pseudomonas aeruginosa, mutant of the truncated construct without the signal peptide (residues 1-20)
B3: Tsi3 E103A (natural protein)
chain: B1 chain with E83A
notes: as for B2
B4: Tsi3 E126A (natural protein)
chain: B1 chain with E106A
notes: as for B2
B5: Tsi3 Q124A (natural protein)
chain: B1 chain with Q104A
notes: as for B2

The binders below were run against T1, Tse3 (type VI secretion exported 3), … (assay: not stated; stoichiometry observed in solution; method not given). Conditions: both partners purified.

Row | Binder | stoichiometry N
1 | B1 | 1

The binders below were run against T1, Tse3 (type VI secretion exported 3), … (assay: SPR; Biacore 3000, 298 K; Tse3 immobilised on a CM5 chip (2689.1-3396.3 RU); Tsi3 injected, single-cycle kinetics, five concentrations (0.02-1.62 µM for wild type, E103A, Q124A; 0.1-8.1 µM for R60A, S99A, E126A); running buffer 50 mM HEPES pH 7.5, 100 mM NaCl, 0.005% Tween-20; 1:1 Langmuir fit). Conditions: both partners purified.

Row | Binder | Kd | kon
2 | B1 | 0.0281 µM | 12900 M⁻¹ s⁻¹
3 | B2 | 3.29 µM | 8990 M⁻¹ s⁻¹
4 | B3 | 0.0436 µM | 14300 M⁻¹ s⁻¹
5 | B4 | 0.417 µM | 12100 M⁻¹ s⁻¹
6 | B5 | 0.0588 µM | 17300 M⁻¹ s⁻¹
